B1: S1602Q: domain 11 AB5 background + FG loop S1602Q (protein)
chain: MKSNEHDDCQVTNPSTGHLFDLSSLSGRAGFTAAYAKGWGVYMSICGENENCPPGVGACFGQTRISVGKANKRLRYVDQVLQLVYKDGSPCPSKQGLSYKSVISFVCRPEAGPTNRPMLISLDKQTCTLFFSWHTPLACEQATECSV
B2: G1603A: domain 11 AB5 background + FG loop G1603A (protein)
chain: B1 chain with Q95S, G96A
B3: Q1632L: domain 11 HI loop mutant Q1632L, probably AB5 background (protein)
chain: B1 chain with Q95S, Q125L
B4: L1604A: domain 11 AB5 background + FG loop L1604A (protein)
chain: B1 chain with Q95S, L97A
B5: T1633A: domain 11 HI loop mutant T1633A, probably AB5 background (protein)
chain: B1 chain with Q95S, T126A
B6: K1631E: domain 11 HI loop mutant K1631E, probably AB5 background (protein)
chain: B1 chain with Q95S, K124E
B7: Q1632A: domain 11 HI loop mutant Q1632A, probably AB5 background (protein)
chain: B1 chain with Q95S, Q125A
B8: Q1632K: domain 11 HI loop mutant Q1632K, probably AB5 background (protein)
chain: B1 chain with Q95S, Q125K
B9: Q1632E: domain 11 HI loop mutant Q1632E, probably AB5 background (protein)
chain: B1 chain with Q95S, Q125E
B10: W1546F: domain 11 AB5 with W1546F in the AB loop (protein)
chain: B1 chain with W39F, Q95S
B11: G1603K: domain 11 AB5 background + FG loop G1603K (protein)
chain: B1 chain with Q95S, G96K
B12: K1631R: domain 11 HI loop mutant K1631R, probably AB5 background (protein)
chain: B1 chain with Q95S, K124R
B13: AB5 + 51F (HI-NRQS): domain 11 AB5 with HI loop NRQS (clone 51F) (protein)
chain: B1 chain with Q95S, D123N, K124R, T126S
B14: AB3 P1597H: domain 11 AB3 + FG loop P1597H (protein)
chain: B1 chain with A36S, G38S, W39G, G40V, P90H, Q95S
B15: WT + 312G (HI-VKLM): wild-type domain 11 with HI loop VKLM (clone 312G) (protein)
chain: B1 chain with A36S, K37E, G38K, W39G, G40L, Q95S, D123V, Q125L, T126M
B16: WT + 23D (HI-HFQS): wild-type domain 11 with HI loop 1630-1633 HFQS (clone 23D) (protein)
chain: B1 chain with A36S, K37E, G38K, W39G, G40L, Q95S, D123H, K124F, T126S
B17: WT + 27G (HI-NMAL): wild-type domain 11 with HI loop NMAL (clone 27G) (protein)
chain: B1 chain with A36S, K37E, G38K, W39G, G40L, Q95S, D123N, K124M, Q125A, T126L
B18: AB3 Q1569R: domain 11 AB3 + CD loop Q1569R (protein)
chain: B1 chain with A36S, G38S, W39G, G40V, Q62R, Q95S
B19: WT + 26C (HI-DMQT): wild-type domain 11 with HI loop DMQT (clone 26C) (protein)
chain: B1 chain with A36S, K37E, G38K, W39G, G40L, Q95S, K124M
B20: AB3 P1597H K1631W: domain 11 AB3 + P1597H, K1631W (protein)
chain: B1 chain with A36S, G38S, W39G, G40V, P90H, Q95S, K124W
B21: AB3 P1597K: domain 11 AB3 + FG loop P1597K (protein)
chain: B1 chain with A36S, G38S, W39G, G40V, P90K, Q95S
B22: AB3 Q1569R P1597H: domain 11 AB3 + Q1569R, P1597H (protein)
chain: B1 chain with A36S, G38S, W39G, G40V, Q62R, P90H, Q95S
B23: AB3 Q1569R P1597K: domain 11 AB3 + Q1569R, P1597K (protein)
chain: B1 chain with A36S, G38S, W39G, G40V, Q62R, P90K, Q95S

Numbering of substitutions follows the chain as printed. Numbers in names are those of the source.

In the first assay the target is IGF2 (Homo sapiens, UniProt P01344). In words: SPR (Biacore T200) of recombinant IGF2R domain 11 mutants on immobilised biotinylated IGF2. Type of assay: binding. More on the design: purchased GroPep. To be noted: Table 1; 25° C., HBS-EP pH 7.4. An excerpt: Surface plasmon resonance (SPR) binding analysis of recombinant M6P/IGF2R domain 11 mutants interaction with IGF2. Kon indicates association (on) rate; koff, dissociation (off) rate; RU, response units. Binding to IGF2 assessed with BIAcore T200 using purified biotinylated IGF2 and IGF1 on a streptavidin biosensor chip. Recombinant proteins were expressed either in E. coli and/or P. pastoris. All the mutants in the FG and CD loops are on the domain 11^AB5 background for the AB loop unless otherwise stated. All experiments were carried out at 25° C. in HBS-EP buffer (pH 7.4), were repeated 2-5 times on two independent BIAcore chips. nd=not determined. Data for KD expressed as mean of each experiment, and means of kon and koff are shown.
Chain of IGF2 (P01344 25-91): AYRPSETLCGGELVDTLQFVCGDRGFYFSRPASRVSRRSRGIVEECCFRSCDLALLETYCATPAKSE
Measurements were carried out at 25° C. in HBS-EP buffer (pH 7.4) (nd=not determined, np=no protein). Data for KD expressed as mean of each experiment, and means of kon and koff are shown.
Measurements were carried out at 25° C. in MES-EP buffer, 20 mM MES pH 6.5, 150 mM NaCl, 3 mM EDTA, and 0.005% (v/v) surfactant P20). Data for KD expressed as mean of each experiment, and means of kon and koff are shown.
Final kinetic analysis of mutants by SPR was conducted using a Biacore T200 biosensor at 25° C. in either HBS-EP (10 mM HEPES pH 7.4, 150 mM NaCl, 3 mM EDTA, and 0.005% (v/v) surfactant P20) or MES-EP (20 mM MES pH 6.5, 150 mM NaCl, 3 mM EDTA, and 0.005% (v/v) surfactant P20) at a flow-rate of 40 μL min^−1. […] For the analysis of the Fc-domain 11^AB5 interaction, approximately 50 RU of a biotinylated IGF2:biotinylated ubiquitin mixture (1:8 proportion) was immobilized on the CM5-streptavidin chip. This interaction was also analysed by immobilizing the Fc-domain 11^AB5 and Fc-domain 11^AB5-RHH (or Fc-domain 11^I1572A as control) by Human Antibody Capture (monoclonal mouse anti-human IgG antibody immobilised on a CM5 chip by amine coupling, GE Healthcare) with and without human IgG1 Fc fragment (Bethyl Laboratories, UK) in the control flow cell. Increasing concentrations of IGF2^1-67, proIGF2^1-104, proIGF2^1-156 and IGF1 ranging from 0.125 to 32 nM were injected. T200 BiaEvaluation software (GE Healthcare) was used to fit the resulting curves according to a 1:1 binding model. Steady state affinities were determined using the kinetic data, taking the response average at 5 seconds before injection end and for 5 seconds average. Thermodynamic data was performed across the temperature range of 10° C. to 30° C., van't Hoff and Erying plots generated and ΔH, −TΔS and ΔG values determined as previously described.
(SPR reads the build-up and loss of mass on a sensor chip optically.)
With B1, the Kinetics koff was 0.0191 s⁻¹ and the Kinetics kon amounted to 5.88e+06 M⁻¹ s⁻¹.
On the same counts, the results for B2 are 0.0183 s⁻¹ and 2.14e+06 M⁻¹ s⁻¹.
The corresponding values for B3 are 0.0175 s⁻¹ and 3.18e+06 M⁻¹ s⁻¹.
The corresponding values for B4 are 0.0397 s⁻¹ and 790000 M⁻¹ s⁻¹.
For B5, the Kinetics koff was found to be 0.0196 s⁻¹ and the Kinetics kon stood at 800000 M⁻¹ s⁻¹.
As for B6, the Kinetics koff was more than 0.1 s⁻¹.
Consider B7, for which the Kinetics koff was 0.0167 s⁻¹ and the Kinetics kon is 4.5e+06 M⁻¹ s⁻¹.
Turning to B8, the Kinetics koff is 0.0212 s⁻¹ and the Kinetics kon was determined as 1.96e+06 M⁻¹ s⁻¹.
Turning to B9, the Kinetics koff was 0.0202 s⁻¹ and the Kinetics kon was found to be 520000 M⁻¹ s⁻¹.
B10: the Kinetics koff came out at 0.0180 s⁻¹ and the Kinetics kon was 4.5e+06 M⁻¹ s⁻¹.
As to B11, the Kinetics koff came to 0.0121 s⁻¹ and the Kinetics kon stood at 4.66e+06 M⁻¹ s⁻¹.
Take B12: the Kinetics koff was 0.0867 s⁻¹ and the Kinetics kon is 7.18e+06 M⁻¹ s⁻¹.

Staying with this assay, now noted: Table 2.
B13: the Kinetics koff worked out at 0.10 s⁻¹ and the Kinetics kon stood at 7.4e+06 M⁻¹ s⁻¹.
For B14, the Kinetics koff was 0.013 s⁻¹ and the Kinetics kon stood at 1.06e+07 M⁻¹ s⁻¹.
For the molecule B15, the Kinetics koff stood at 0.15 s⁻¹ and the Kinetics kon was 1.07e+06 M⁻¹ s⁻¹.
On the same counts, the results for B16 are 0.065 s⁻¹ and 250000 M⁻¹ s⁻¹.
In the case of B17, the Kinetics koff was 0.25 s⁻¹ and the Kinetics kon was 2e+06 M⁻¹ s⁻¹.
On the same counts, the results for B18 are 0.031 s⁻¹ and 1.36e+07 M⁻¹ s⁻¹.
For B19, the Kinetics koff came to 0.24 s⁻¹ and the Kinetics kon came out at 1.89e+06 M⁻¹ s⁻¹.

Staying with this assay, now noted: Table 3; 25° C., HBS-EP pH 7.4.
In the case of B20, the Kinetics koff was 0.3478 s⁻¹ and the Kinetics kon came out at 1.97e+07 M⁻¹ s⁻¹.
With B21, the Kinetics koff turned out to be 0.0287 s⁻¹ and the Kinetics kon stood at 1.05e+07 M⁻¹ s⁻¹.
On the same counts, the results for B22 are 0.0153 s⁻¹ and 1.89e+07 M⁻¹ s⁻¹.
Turning to B23, the Kinetics koff was found to be 0.0241 s⁻¹ and the Kinetics kon was 2e+07 M⁻¹ s⁻¹.
In the case of B14, the Kinetics koff was 0.013 s⁻¹ and the Kinetics kon is 1.06e+07 M⁻¹ s⁻¹.
With B18, the Kinetics koff stood at 0.031 s⁻¹ and the Kinetics kon was found to be 1.36e+07 M⁻¹ s⁻¹.

The same assay, now with this note: Table 4; MES-EP pH 6.5.
Regarding B22, the Kinetics koff was 0.0091 s⁻¹ and the Kinetics kon amounted to 1.99e+07 M⁻¹ s⁻¹.

The values above are taken from patent US10494415B2, “Insulin-like growth factor 2 (IGF2) binding agents” (Cancer Research Technology Limited, priority 2015, dated 2019).
